From patent publication US20190064149

Key:
[1] = test system: EphA2 having Myc-labeled C-terminal
[2] = test system: processing-resistant EphA2 mutant (EphA2 deleted at a site to be processed by MT1-MMP, FLAG-labeled C terminal)
[3] = molecular target: E-cadherin (UniProt P12830)
[4] = test system: EphA2 (full-length type EphA2)

Sequence of E-cadherin (P12830 155-882): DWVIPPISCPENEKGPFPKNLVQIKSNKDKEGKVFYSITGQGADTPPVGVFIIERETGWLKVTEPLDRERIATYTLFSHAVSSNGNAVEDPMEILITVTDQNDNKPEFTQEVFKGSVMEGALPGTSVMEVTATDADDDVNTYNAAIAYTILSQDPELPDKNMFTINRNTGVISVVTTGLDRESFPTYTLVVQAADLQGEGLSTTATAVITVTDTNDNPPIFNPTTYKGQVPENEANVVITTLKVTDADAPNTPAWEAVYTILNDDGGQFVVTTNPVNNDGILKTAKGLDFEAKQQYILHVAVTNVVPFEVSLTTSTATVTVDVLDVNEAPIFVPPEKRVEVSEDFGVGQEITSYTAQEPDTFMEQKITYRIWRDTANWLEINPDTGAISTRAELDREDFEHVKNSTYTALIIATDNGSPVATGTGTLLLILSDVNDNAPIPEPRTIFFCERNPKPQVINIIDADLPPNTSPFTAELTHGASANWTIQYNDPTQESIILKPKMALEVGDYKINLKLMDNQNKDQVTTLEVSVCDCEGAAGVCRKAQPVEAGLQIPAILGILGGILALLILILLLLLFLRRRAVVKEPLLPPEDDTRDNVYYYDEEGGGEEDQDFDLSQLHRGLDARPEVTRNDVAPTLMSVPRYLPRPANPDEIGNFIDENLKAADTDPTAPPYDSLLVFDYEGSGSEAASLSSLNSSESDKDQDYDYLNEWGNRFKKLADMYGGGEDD

With MT2-MMP the “EphA2 processed fragment, western blotting” value [1] was “a processed fragment of EphA2 (small arrow) was detected only in the MT1-MMP-introduced cells”.

In the case of MT3-MMP, the “EphA2 processed fragment, western blotting” value [1] is reported as “a processed fragment of EphA2 (small arrow) was detected only in the MT1-MMP-introduced cells”.

In the case of MT5-MMP, the “EphA2 processed fragment, western blotting” value [1] is reported as “a processed fragment of EphA2 (small arrow) was detected only in the MT1-MMP-introduced cells”.

“membrane type-1 matrix metallproteinase (MT1-MMP), expressed in cells” was tested, and the “EphA2 processed fragments, western blotting with Myc antibody” value [1] was “full-length type EphA2 (large arrow) and respective EphA2 processed fragments (small arrow) having a molecular weight of 65 and 60 kDa were detected”, the “processed state of EphA2, western blotting” value [2] was “the mutant deleted at a cleavage site showed resistance against processing by MT1-MMP” and the “processing of E-cadherin, western blotting” value [3] was “presence or absence of MT1-MMP expression caused no change in the processing of E-cadherin”. For the same substance, the “65-kDa and 60-kDa processed fragments of EphA2 after MT1-MMP knockdown, IP-western” value [4] was “Due to MT1-MMP knockdown, the 65-kDa and 60-kDa processed fragments of EphA2 disappeared”.
